Values quoted from earlier work, collected in publication PMC9782320.

Target: plasmin (Homo sapiens) (UniProt P00747)
Chain of UniProt P00747 (P00747 581-810): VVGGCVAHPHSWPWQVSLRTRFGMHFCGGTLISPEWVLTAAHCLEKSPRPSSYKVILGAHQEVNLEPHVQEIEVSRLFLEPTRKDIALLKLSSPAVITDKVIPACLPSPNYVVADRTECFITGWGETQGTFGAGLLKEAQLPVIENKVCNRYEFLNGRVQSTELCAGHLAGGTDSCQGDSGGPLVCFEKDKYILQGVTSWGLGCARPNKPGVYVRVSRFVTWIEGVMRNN

For staphylokinase (from UniProt P68801), the Kd is given as 10 nM.
